Data from article PMC10321058.

Target: SARS-CoV-2 spike RBD protein (SARS-CoV-2, UniProt P0DTC2 319-541)
Assay: electrochemical aptasensor

B1: thiolated SARS-CoV-2 RBD aptamer (Song et al. 2020) (ssDNA)
DNA: TTTTTCCAGCCACCGACCTTGTGCTTTGGGAGTGCTGGTCCAAGGGCGTTAAGGACA
modifications: 5'-thiol, TCEP reduced, immobilized on SPCE/HA-LSCF
  binding result: binds
